Data reported in US20210301026A1 (ULTRAHUMAN TWELVE, published 2021).
Like-named read-outs stand apart in the source and are kept apart here.

Assays:
[1] = molecular target: T1, monomeric human CSF1R ectodomain protein (human, UniProt P07333 20-517); experiment: SPR Biacore, IgG captured, monomeric CSF1R analyte
T1 construct: also called biotinylated monomeric human CSF1R
Experimental: (§1) Affinity (KD) of purified IgGs was determined via SPR with antigen in-solution on a Biacore 3000 (GE). A mouse anti-human antibody (CH1 specific) was immobilized on a CM5 Sensor Chip to a level of 2000 RU in acetate buffer at pH 4.5 using amine coupling following the Wizard instructions for two channels. One channel was used for background signal correction. The standard running buffer HBS-EP pH 7.4 was used. Regeneration was performed with a single injection of 10 μl of 10 mM Glycine at pH 1.5 at 20 μl/minute. IgG samples were injected for 2 minutes at 50 nM at 30 μl/min followed by and off-rate of 60 seconds. The monomeric ectodomain protein (human CSF1R or cynomolgus monkey CSF1R) was injected in two fold serial dilutions from 100 nM down to 3.1 nM, for 2 minutes at 30 μl/min followed by an off-rate of 300 seconds. The obtained sensorgrams were analysed using the Biacore 3000 evaluation (BIAevaluation) software. The KD was calculated by simultaneous fitting of the association and dissociation phases to a 1:1 Langmuir binding model.
(§2) Biacore analyses of binding affinity were performed for all IgGs to solution-phase, monomeric human and cyno CSF1R proteins (Table 6). […] Affinity differentials of less than 3-fold between human and cyno target orthologs are highly beneficial in pre-clinical drug development analyses as they allow more accurate design and interpretation of e.g. monkey safety, PK and PD modelling experiments.

[2] = molecular target: T2, monomeric cynomolgus monkey CSF1R ectodomain protein (cynomolgus monkey, UniProt P07333 20-517 (human entry)); experiment: SPR Biacore, IgG captured, monomeric CSF1R analyte
T2 construct: also called monomeric cyno CSF1R; Cyno CSF1R
T2 chain: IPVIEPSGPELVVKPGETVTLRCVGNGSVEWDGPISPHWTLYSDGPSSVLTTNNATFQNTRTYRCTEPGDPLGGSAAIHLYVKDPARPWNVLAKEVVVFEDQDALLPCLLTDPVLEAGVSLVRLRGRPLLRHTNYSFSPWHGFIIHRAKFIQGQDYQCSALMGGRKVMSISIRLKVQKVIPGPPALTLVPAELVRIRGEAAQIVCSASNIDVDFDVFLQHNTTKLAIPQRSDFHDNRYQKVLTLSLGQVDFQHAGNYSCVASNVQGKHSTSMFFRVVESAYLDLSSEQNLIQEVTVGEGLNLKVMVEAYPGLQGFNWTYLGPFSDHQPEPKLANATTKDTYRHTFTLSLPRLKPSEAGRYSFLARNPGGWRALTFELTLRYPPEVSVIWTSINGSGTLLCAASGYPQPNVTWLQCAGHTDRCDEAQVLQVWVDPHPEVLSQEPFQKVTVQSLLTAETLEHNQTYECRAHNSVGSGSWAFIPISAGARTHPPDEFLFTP
Experimental: as §1, §2

[3] = molecular target: T1, monomeric human CSF1R ectodomain protein; experiment: SPR Biacore, IgG captured, monomeric CSF1R analyte; remark: listed apart in the source
Experimental: as §1

[4] = molecular target: T2, monomeric cynomolgus monkey CSF1R …; experiment: SPR Biacore, IgG captured, monomeric CSF1R analyte
Experimental: as §1

[5] = molecular target: T1, monomeric human CSF1R ectodomain protein; experiment: AlphaScreen competition with mu0301 IgG4(S228P) for biotinylated monomeric human CSF1R
Experimental: The AlphaScreen assay (Perkin Elmer) was performed in a 25 μl final volume in 384-well white microtiter plates (Greiner). The reaction buffer contained 1×PBS pH 7.3 (Oxoid, Cat. nr. BR0014G) and 0.05% (v/v) Tween® 20 (Sigma, Cat. nr. P9416). Purified IgG samples were titrated in three fold serial dilutions starting at 500 nM final concentration and incubated with biotinylated human CSF1R for 20 minutes at room temperature. […] The emission of light was measured in the EnVision multilabel plate reader (Perkin Elmer) and analysed using the EnVision manager software. Values were reported as Counts Per Second (CPS) and corrected for crosstalk. The EC50 values were calculated using the […] in GraphPad Prism software (GraphPad Software, La Jolla, Calif.).

human insulin = molecular target: T3, human insulin (human, UniProt P01308 25-54; P01308 90-110, limits assumed); experiment: ELISA on human insulin (development risk, polyreactivity), binding score
T3 construct: Coated antigen of the polyreactivity ('PK-risk indicator') ELISA

[6] = molecular target: T4, cynomolgus monkey CSF1R human Fc tagged recombinant protein (cynomolgus monkey, UniProt P07333 20-517 (human entry), limits assumed); experiment: direct titration ELISA on coated cyno CSF1R-Fc, IgG4(S228P) format, OD 450 nm
T4 construct: also called cyno CSF1R-Fc
T4 chain: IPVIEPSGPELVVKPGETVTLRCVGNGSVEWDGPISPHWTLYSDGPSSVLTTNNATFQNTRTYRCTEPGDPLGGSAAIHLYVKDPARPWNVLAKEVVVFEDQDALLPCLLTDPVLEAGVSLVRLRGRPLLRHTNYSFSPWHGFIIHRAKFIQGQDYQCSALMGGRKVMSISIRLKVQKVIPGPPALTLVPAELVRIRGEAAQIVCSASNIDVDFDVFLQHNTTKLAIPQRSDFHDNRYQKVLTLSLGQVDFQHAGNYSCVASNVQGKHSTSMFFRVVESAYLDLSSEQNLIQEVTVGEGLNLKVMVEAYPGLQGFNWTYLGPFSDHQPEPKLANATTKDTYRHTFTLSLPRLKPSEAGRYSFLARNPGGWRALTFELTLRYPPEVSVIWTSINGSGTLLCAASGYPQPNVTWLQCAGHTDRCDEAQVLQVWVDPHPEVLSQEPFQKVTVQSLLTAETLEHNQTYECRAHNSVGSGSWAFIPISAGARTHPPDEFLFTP
Experimental: (§3) Binding and cross-reactivity of the lead panel to the recombinant proteins was initially assessed by binding ELISA. The human CSF1R human Fc tagged recombinant protein and the cynomolgus monkey CSF1R human Fc tagged recombinant protein were coated to the surface of MaxiSorp™ flat-bottom 96 well plate at 1 μg/ml. The purified IgG samples were titrated in two fold serial dilutions starting from 500 nM to 0.008 nM and allowed to bind to the coated antigens. The Fabs were detected using mouse anti-c-myc antibody followed by donkey anti-mouse IgG conjugated to horseradish peroxidase. The IgGs were detected using the mouse anti-human IgG conjugated to horseradish peroxidase. Binding signals were visualized with 3,3′,5,5′-Tetramethylbenzidine Substrate Solution (TMB) and the absorbance measured at 450 nm.

[7] = molecular target: T5, human CSF1R human Fc tagged recombinant protein (human, UniProt P07333 20-517); experiment: direct titration ELISA on coated human CSF1R-Fc, IgG4(S228P) format, OD 450 nm
T5 construct: also called human CSF1R-Fc
Experimental: as §3

[8] = molecular target: T4, cynomolgus monkey CSF1R human Fc tagged …; experiment: direct titration ELISA on coated cyno CSF1R-Fc, IgG4(S228P) format, OD 450 nm
Experimental: as §3

[9] = molecular target: T5, human CSF1R human Fc tagged recombinant …; experiment: direct titration ELISA on coated human CSF1R-Fc, IgG4(S228P) format, OD 450 nm; remark: listed apart in the source
Experimental: as §3

T3 sequence (P01308 25-54 limits assumed, chain 1 of 2): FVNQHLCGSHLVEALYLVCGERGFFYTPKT
T3 sequence (P01308 90-110 limits assumed, chain 2 of 2): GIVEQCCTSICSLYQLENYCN

B1: MH5 (antibody, human IgG4, V domains shown)
VH: QVQLVQSGAEVKKPGSSVKVSCKASGYTFSSYYMIWVRQAPGQGLEWMGDINPYNGGANYAQKFQGRVTITADESTSTAYMELSSLRSEDTAVYYCAREGPYFSNLYVMDYWGQGTLVTVSS
VL: EIVLTQSPATLSLSPGERATLSCRASQSVSYEGENYLNWYQQKPGQAPRLLIYAASNRATGIPARFSGSGSGTDFTLTISSPEPEDFAVYYCQLSNEDLLTFGGGTKVEIK
notes: Designer (maximally humanized) clone; tested as human IgG4(S228P)/Ckappa IgG; also called mAb-2
Work on B1 yielded a Kd [1] of 0.22 nM, a koff [1] of 0.00036 s⁻¹ and a kon [1] of 1.7e+06 M⁻¹ s⁻¹. It also gave a Kd [2] of 0.62 nM, a koff [2] of 0.00031 s⁻¹ and a kon [2] of 500000 M⁻¹ s⁻¹. For the same binder, the Kd [3] was 0.22 nM, the koff [3] was 0.00036 s⁻¹ and the kon [3] was 1.7e+06 M⁻¹ s⁻¹. For the same binder, the Kd [4] was 0.62 nM, the koff [4] was 0.00031 s⁻¹ and the kon [4] was 500000 M⁻¹ s⁻¹. It also gave an IC50 [5] of 2.18 nM.

B2: MH23 (antibody, human IgG4, V domains shown)
VH: QVQLVQSGAEVKKPGSSVKVSCKASGYTFSSHYMIWVRQAPGQGLEWMGDINPYNGGANYAQKFQGRVTITADESTSTAYMELSSLRSEDTAVYYCAREGPYFSNLYVMDYWGQGTLVTVSS
VL: EIVLTQSPATLSLSPGERATLSCRASQSVSYEGENYLNWYQQKPGQAPRAAIYAASNRATGIPARFSGSGSGTDFTLTISSPEPEDFAVYYCQLSNEDLLTFGGGTKVEIK
notes: Deimmunized MH5 derivative, human IgG4(S228P)/Ckappa IgG
B2: no binding (human insulin); binds [6]; binds [7].

B3: 29E11 (antibody, human IgG4, V domains shown)
VH: QVQLVQSGAEVKKPGSSVKVSCKASGYTFTSYYMIWVRQAPGQGLEWMGDINPYNGTATYAQKFQGRVTITADESTSTAYMELSSLRSEDTAVYYCAREGPYFSNLYVMDYWGQGTLVTVSS
VL: EIVLTQSPATLSLSPGERATLSCRASQSVSYDGENYLAWYQQKPGQAPRLLIYAASNRATGIPARFSGSGSGTDFTLTISSLEPEDFAVYYCQLSNEDLLTFGGGTKVEIK
notes: Library-derived clone, tested as human IgG4(S228P)/Ckappa IgG; framework residue limits counted on the grafts
B3: binds [8]; binds [9].

B4: MH4 (antibody, V domains shown)
VH: QVQLVQSGAEVKKPGSSVKVSCKASGYTFSSYYMIWVRQAPGQGLEWMGDINPYNGGANYAQKFQGRVTITADESTSTAYMELSSLRSEDTAVYYCAREGPYFSNLYVMDYWGQGTLVTVSS
VL: EIVLTQSPATLSLSPGERATLSCRASQSVSYQGENYLAWYQQKPGQAPRLLIYDASNRATGIPARFSGSGSGTDFTLTISSLEPEDFAVYYCQLSNQDLLTFGGGTKVEIK
notes: Designer clone, human IgG4(S228P)/Ckappa IgG
Binder B4 has a Kd [1] of 1.9 nM, a koff [1] of 0.0024 s⁻¹ and a kon [1] of 1.3e+06 M⁻¹ s⁻¹. For the same binder, the Kd [2] was 2.9 nM, the koff [2] was 0.0014 s⁻¹ and the kon [2] was 470000 M⁻¹ s⁻¹. The IC50 [5] was 18.9 nM and the “fold lower epitope competition than hu0301” value [5] was over 2 fold.

B5: MH22 (antibody, human IgG4, V domains shown)
VH: QVQLVQSGAEVKKPGSSVKVSCKASGYTFSSHYMIWVRQAPGQGLEWMGDINPYNGGANYAQKFQGRVTITADESTSTAYMELSSLRSEDTAVYYCAREGPYFSNLYVMDYWGQGTLVTVSS
VL: EIVLTQSPATLSLSPGERATLSCRASQSVSYEGENYLNWYQQKPGQAPRSAIYAASNRATGIPARFSGSGSGTDFTLTISSPEPEDFAVYYCQLSNEDLLTFGGGTKVEIK
notes: as for B2
B5: no binding (human insulin); binds [6]; binds [7].

B6: MH31 (antibody, human IgG4, V domains shown)
VH: QVQLVQSGAEVKKPGSSVKVSCKASGYTFSSAYMIWVRQAPGQGLEWMGDINPYNGGANYAQKFQGRVTITADESTSTAYMELSSLRSEDTAVYYCAREGPYFSNLYVMDYWGRGTLVTVSS
VL: EIVLTQSPATLSLSPGERATLSCRASQSVSYEGENYLNWYQQKPGQAPRAAIYAASNRATGIPARFSGSGSGTDFTLTISSPEPEDFAVYYCQLSNEDLLTFGGGTKVEIK
notes: as for B2
B6: no binding (human insulin); binds [6]; binds [7].

B7: MH6 (antibody, V domains shown)
VH: QVQLVQSGAEVKKPGSSVKVSCKASGYTFSSYYMIWVRQAPGQGLEWMGDINPYNGGANYAQKFQGRVTITADESTSTAYMELSSLRSEDTAVYYCAREGPYFSNLYVMDYWGQGTLVTVSS
VL: EIVLTQSPATLSLSPGERATLSCRASQSVSYEGENYLAWYQQKPGQAPRLLIYAASNRATGIPARFSGSGSGTDFTLTISSLEPEDFAVYYCQLSNQDLLTFGGGTKVEIK
notes: as for B4
Work on B7 yielded a Kd [1] of 0.88 nM, a koff [1] of 0.0012 s⁻¹ and a kon [1] of 1.3e+06 M⁻¹ s⁻¹. For the same binder, the Kd [2] was 1.3 nM, the koff [2] was 0.00064 s⁻¹ and the kon [2] was 510000 M⁻¹ s⁻¹. For the same binder, the IC50 [5] was 7.74 nM and the “fold lower epitope competition than hu0301” value [5] was over 2 fold.

B8: MH38 (antibody, human IgG4, V domains shown)
VH: QVQLVQSGAEVKKPGSSVKVSCKASGYTFSSHYMIWVRQAPGQGLEWMGDINPYNGGANYAQKFQGRVTITADESTSTAYMELSSLRSEDTAVYYCAREGPYFSNLYVMDYWGRGTLVTVSS
VL: EIVLTQSPATLSLSPGERATLSCRASQSVSYEGENYLNWYQQKPGQAPRSAIYAASNRATGIPARFSGSGSGTDFTLTISSPEPEDFAVYYCQLSNEDLLTFGGGTKVEIK
notes: as for B2
B8: binds [6]; binds [7].

B9: MH9 (antibody, V domains shown)
VH: QVQLVQSGAEVKKPGSSVKVSCKASGYTFSSYYIIWVRQAPGQGLEWMGDINPYNGTANYAQKFQGRVTITADESTSTAYMELSSLRSEDTAVYYCAREGPYFSNLYVMDYWGQGTLVTVSS
VL: EIVLTQSPATLSLSPGERATLSCRASQSVSYEGENYLAWYQQKPGQAPRLLIYAASNRATGIPARFSGSGSGTDFTLTISSLEPEDFAVYYCQLSNQDLLTFGGGTKVEIK
notes: as for B4
B9 was tested, and the “EC50 (read off the curve)” value [9] was about 10 nM.

B10: MH14 (antibody, human IgG4, V domains shown)
VH: QVQLVQSGAEVKKPGSSVKVSCKASGYTFSSAYMIWVRQAPGQGLEWMGDINPYNGGANYAQKFQGRVTITADESTSTAYMELSSLRSEDTAVYYCAREGPYFSNLYVMDYWGQGTLVTVSS
VL: EIVLTQSPATLSLSPGERATLSCRASQSVSYEGENYLNWYQQKPGQAPRSAIYAASNRATGIPARFSGSGSGTDFTLTISSPEPEDFAVYYCQLSNEDLLTFGGGTKVEIK
notes: as for B2
B10: no binding (human insulin); binds [6]; binds [7].
